Biological target: AphC, extradiol dioxygenase from Rhodococcus jostii RHA1 (Rhodococcus jostii RHA1)
Assay: crystal structure

stoichiometry N: 4
Substance: AphC, extradiol dioxygenase from Rhodococcus jostii RHA1 (enzyme)

Source: paper PMC9062432
